Biological target: Full-length human histidine-tagged p300 (human) (UniProt Q09472)
Experiment: cell-based or functional assay

Chain of Full-length human histidine-tagged p300 (human) (Q09472 2-2414): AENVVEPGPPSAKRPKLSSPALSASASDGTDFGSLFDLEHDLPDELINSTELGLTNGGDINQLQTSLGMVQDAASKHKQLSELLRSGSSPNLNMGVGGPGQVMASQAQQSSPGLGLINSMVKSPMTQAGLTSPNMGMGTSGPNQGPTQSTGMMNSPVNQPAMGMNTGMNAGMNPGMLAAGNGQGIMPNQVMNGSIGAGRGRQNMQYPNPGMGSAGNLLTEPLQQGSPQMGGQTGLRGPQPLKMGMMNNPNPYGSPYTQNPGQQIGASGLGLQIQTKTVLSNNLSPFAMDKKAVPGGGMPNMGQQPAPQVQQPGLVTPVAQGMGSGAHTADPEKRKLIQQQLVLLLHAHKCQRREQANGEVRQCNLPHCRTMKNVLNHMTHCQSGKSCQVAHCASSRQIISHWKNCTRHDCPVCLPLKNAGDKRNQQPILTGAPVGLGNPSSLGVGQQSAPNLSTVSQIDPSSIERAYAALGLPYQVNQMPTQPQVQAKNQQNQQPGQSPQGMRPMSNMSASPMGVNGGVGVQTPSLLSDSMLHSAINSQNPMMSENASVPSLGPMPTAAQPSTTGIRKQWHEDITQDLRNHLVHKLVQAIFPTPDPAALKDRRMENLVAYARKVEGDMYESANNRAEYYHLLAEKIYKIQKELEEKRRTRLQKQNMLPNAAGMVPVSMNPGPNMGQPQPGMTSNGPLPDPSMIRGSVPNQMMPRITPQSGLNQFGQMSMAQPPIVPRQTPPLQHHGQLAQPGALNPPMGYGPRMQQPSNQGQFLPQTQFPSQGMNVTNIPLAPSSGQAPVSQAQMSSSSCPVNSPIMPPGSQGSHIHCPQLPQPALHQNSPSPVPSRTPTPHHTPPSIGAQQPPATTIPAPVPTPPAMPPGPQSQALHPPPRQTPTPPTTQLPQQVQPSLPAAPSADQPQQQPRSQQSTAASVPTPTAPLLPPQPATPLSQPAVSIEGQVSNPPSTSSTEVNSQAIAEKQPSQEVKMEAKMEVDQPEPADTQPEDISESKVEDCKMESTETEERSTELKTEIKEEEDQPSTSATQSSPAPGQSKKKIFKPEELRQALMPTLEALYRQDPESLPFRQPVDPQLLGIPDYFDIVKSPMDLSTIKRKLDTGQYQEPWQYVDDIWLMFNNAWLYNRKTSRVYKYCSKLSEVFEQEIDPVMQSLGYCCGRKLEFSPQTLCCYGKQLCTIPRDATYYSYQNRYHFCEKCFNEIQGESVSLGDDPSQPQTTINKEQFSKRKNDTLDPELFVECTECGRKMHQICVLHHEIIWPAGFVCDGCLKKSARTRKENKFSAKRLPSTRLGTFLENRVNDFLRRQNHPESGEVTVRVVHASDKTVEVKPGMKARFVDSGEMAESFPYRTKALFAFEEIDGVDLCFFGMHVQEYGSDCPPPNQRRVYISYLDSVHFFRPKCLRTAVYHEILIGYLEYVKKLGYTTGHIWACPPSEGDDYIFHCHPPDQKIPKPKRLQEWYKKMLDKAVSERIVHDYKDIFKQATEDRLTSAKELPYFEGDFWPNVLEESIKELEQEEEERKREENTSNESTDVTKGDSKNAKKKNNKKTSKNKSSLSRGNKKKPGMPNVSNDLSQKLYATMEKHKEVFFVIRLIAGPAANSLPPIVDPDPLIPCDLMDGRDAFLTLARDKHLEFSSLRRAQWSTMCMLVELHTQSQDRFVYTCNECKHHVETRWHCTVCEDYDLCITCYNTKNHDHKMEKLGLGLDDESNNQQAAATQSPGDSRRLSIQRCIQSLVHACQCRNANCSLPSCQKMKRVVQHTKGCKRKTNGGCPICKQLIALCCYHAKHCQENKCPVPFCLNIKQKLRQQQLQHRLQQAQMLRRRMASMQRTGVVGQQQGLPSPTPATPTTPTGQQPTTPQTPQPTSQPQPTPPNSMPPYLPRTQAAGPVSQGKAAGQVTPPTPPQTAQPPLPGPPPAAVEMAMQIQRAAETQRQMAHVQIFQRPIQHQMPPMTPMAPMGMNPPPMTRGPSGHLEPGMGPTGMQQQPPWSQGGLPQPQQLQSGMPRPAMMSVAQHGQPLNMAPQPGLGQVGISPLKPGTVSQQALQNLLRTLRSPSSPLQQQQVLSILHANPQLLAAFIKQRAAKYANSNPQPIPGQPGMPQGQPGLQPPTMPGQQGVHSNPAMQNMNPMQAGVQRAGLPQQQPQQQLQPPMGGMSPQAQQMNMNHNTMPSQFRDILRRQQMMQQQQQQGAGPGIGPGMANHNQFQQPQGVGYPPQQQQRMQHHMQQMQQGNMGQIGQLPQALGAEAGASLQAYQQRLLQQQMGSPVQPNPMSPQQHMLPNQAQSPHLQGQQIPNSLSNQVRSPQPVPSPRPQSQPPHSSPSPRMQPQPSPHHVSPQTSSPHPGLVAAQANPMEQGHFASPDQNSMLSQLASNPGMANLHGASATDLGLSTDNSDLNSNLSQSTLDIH

increased acetylation in a distal region 2 kb downstream of the proximal promoter of the p21-LUC plasmid (in vitro chromatin immunoprecipitation with anti-acetyl-H4): 1.4 fold
increased acetylation near the 3' p53 binding site of the p21-LUC plasmid (in vitro chromatin immunoprecipitation with anti-acetyl-H4): 3.4 fold
Substance: Full-length human Flag-tagged p53 (native, unacetylated) (from UniProt P04637 1-393)

Source: patent US20030228627A1, “Assay for p53 function in cells” (priority 2002, published 2003)
